Test results taken from the supplement of paper PMC11246515.
± gives the standard deviation of the averaged measurements.

Assay: total protein half-life in vivo (active degradation + dilution); higher = more stable protein
[1] = E. coli NCM3722 delta-clpP delta-lon delta-hslV, growth: N-lim chemostat, doubling time 6 h
[2] = E. coli NCM3722 delta-clpP, growth: N-lim chemostat, doubling time 6 h
[3] = E. coli NCM3722 delta-hslV, growth: N-lim chemostat, doubling time 6 h
[4] = E. coli NCM3722 delta-lon, growth: N-lim chemostat, doubling time 6 h
[5] = E. coli NCM3722 delta-smpB, growth: N-lim chemostat, doubling time 6 h
[6] = wild type E. coli NCM3722, growth: C-lim chemostat, doubling time 3 h
[7] = wild type E. coli NCM3722, growth: C-lim chemostat, doubling time 6 h
[8] = wild type E. coli NCM3722, growth: C-lim chemostat, doubling time 12 h
[9] = wild type E. coli NCM3722, growth: N-lim chemostat, doubling time 6 h
[10] = wild type E. coli NCM3722, growth: N-lim chemostat, doubling time 12 h
[11] = wild type E. coli NCM3722, growth: P-lim chemostat, doubling time 6 h
[12] = wild type E. coli NCM3722, growth: P-lim chemostat, doubling time 12 h

Sequence	total protein half-life in vivo [1]	total protein half-life in vivo [2]	total protein half-life in vivo [3]	total protein half-life in vivo [4]	total protein half-life in vivo [5]	total protein half-life in vivo [6]	total protein half-life in vivo [7]	total protein half-life in vivo [8]	total protein half-life in vivo [9]	total protein half-life in vivo [10]	total protein half-life in vivo [11]	total protein half-life in vivo [12]
MFYPDPFDVIIIGGGHAGTEAAMAAARMGQQTLLLTHNIDTLGQMSCNPAIGGIGKGHLVKEVDALGGLMAKAIDQAGIQFRILNASKGPAVRATRAQADRVLYRQAVRTALENQPNLMIFQQAVEDLIVENDRVVGAVTQMGLKFRAKAVVLTVGTFLDGKIHIGLDNYSGGRAGDPPSIPLSRRLRELPLRVGRLKTGTPPRIDARTIDFSVLAQQHGDNPMPVFSFMGNASQHPQQVPCYITHTNEKTHDVIRSNLDRSPMYAGVIEGVGPRYCPSIEDKVMRFADRNQHQIFLEPEGLTSNEIYPNGISTSLPFDVQMQIVRSMQGMENAKIVRPGYAIEYDFFDPRDLKPTLESKFIQGLFFAGQINGTTGYEEAAAQGLLAGLNAARLSADKEGWAPARSQAYLGVLVDDLCTLGTKEPYRMFTSRAEYRLMLREDNADLRLTEIGRELGLVDDERWARFNEKLENIERERQRLKSTWVTPSAEAAAEVNAHLTAPLSREASGEDLLRRPEMTYEKLTTLTPFAPALTDEQAAEQVEIQVKYEGYIARQQDEIEKQLRNENTLLPATLDYRQVSGLSNEVIAKLNDHKPASIGQASRISGVTPAAISILLVWLKKQGMLRRSA [P0A6U3]	5.157 ± 0.0054 h	4.25 ± 0.18 h	1.64 ± 0.088 h	1.831 ± 0.014 h	1.73 ± 0.065 h	1.42 ± 0.081 h	2.35 ± 0.068 h	3.19 ± 1.2 h	1.71 ± 0.14 h	2.48 ± 0.15 h	1.9 ± 0.13 h	3.12 ± 0.84 h
MKFPGKRKSKHYFPVNARDPLLQQFQPENETSAAWVVGIDQTLVDIEAKVDDEFIERYGLSAGHSLVIEDDVAEALYQELKQKNLITHQFAGGTIGNTMHNYSVLADDRSVLLGVMCSNIEIGSYAYRYLCNTSSRTDLNYLQGVDGPIGRCFTLIGESGERTFAISPGHMNQLRAESIPEDVIAGASALVLTSYLVRCKPGEPMPEATMKAIEYAKKYNVPVVLTLGTKFVIAENPQWWQQFLKDHVSILAMNEDEAEALTGESDPLLASDKALDWVDLVLCTAGPIGLYMAGFTEDEAKRKTQHPLLPGAIAEFNQYEFSRAMRHKDCQNPLRVYSHIAPYMGGPEKIMNTNGAGDGALAALLHDITANSYHRSNVPNSSKHKFTWLTYSSLAQVCKYANRVSYQVLNQHSPRLTRGLPEREDSLEESYWDR [P0AEW6]	4.78 ± 0.21 h	5.5 ± 1.9 h	4.38 ± 0.28 h	6.01 ± 2.3 h	4.03 ± 0.31 h	2.86 ± 0.38 h	5.87 ± 1.5 h	8.23 h	4.14 ± 0.24 h	8.14 ± 1.9 h	5.07 ± 0.35 h	9.56 ± 0.61 h
MSKRTFAVILTLLCSFCIGQALAGGIVLQRTRVIYDASRKEAALPVANKGAETPYLLQSWVDNIDGKSRAPFIITPPLFRLEAGDDSSLRIIKTADNLPENKESLFYINVRAIPAKKKSDDVNANELTLVFKTRIKMFYRPAHLKGRVNDAWKSLEFKRSDHSLNIYNPTEYYVVFAGLAVDKTDLTSKIEYIAPGEHKQLPLPASGGKNVKWAAINDYGGSSGTETRPLQ	–	–	6.17 h	–	–	–	–	–	–	–	–	–
MSAEHVLTMLNEHEVKFVDLRFTDTKGKEQHVTIPAHQVNAEFFEEGKMFDGSSIGGWKGINESDMVLMPDASTAVIDPFFADSTLIIRCDILEPGTLQGYDRDPRSIAKRAEDYLRSTGIADTVLFGPEPEFFLFDDIRFGSSISGSHVAIDDIEGAWNSSTQYEGGNKGHRPAVKGGYFPVPPVDSAQDIRSEMCLVMEQMGLVVEAHHHEVATAGQNEVATRFNTMTKKADEIQIYKYVVHNVAHRFGKTATFMPKPMFGDNGSGMHCHMSLSKNGVNLFAGDKYAGLSEQALYYIGGVIKHAKAINALANPTTNSYKRLVPGYEAPVMLAYSARNRSASIRIPVVSSPKARRIEVRFPDPAANPYLCFAALLMAGLDGIKNKIHPGEAMDKNLYDLPPEEAKEIPQVAGSLEEALNELDLDREFLKAGGVFTDEAIDAYIALRREEDDRVRMTPHPVEFELYYSV [P0A9C5]	5.3 ± 0.14 h	4.58 ± 0.32 h	4.63 ± 0.14 h	5.06 ± 0.33 h	4.02 ± 0.12 h	3.39 ± 0.49 h	6.33 ± 0.86 h	11.5 ± 0.3 h	4.25 ± 0.046 h	7.49 ± 0.92 h	5.8 ± 0.092 h	12.1 ± 0.55 h
MELYREYPAWLIFLRRTYAVAAGVLALPFMLFWKDRARFYSYLHRVWSKTSDKPVWMDQAEKATGDFY [P0AAU2]	2.55 ± 0.61 h	–	–	–	1.38 ± 0.15 h	–	–	3.9 h	2.33 h	3.85 h	0.733 h	3.35 ± 1.6 h
